Reference: publication PMC9237128, “Molecular insights into intra-complex signal transmission during stressosome activation” (Communications Biology, 2022)

B1: Listeria innocua RsbR (LiRsbR) (natural protein)
chain: MYKDFANFIRTNKKDLLNNWMNEMEKQSDPLINDIAKEPMYEETSIEFVDLIVSNITENGSKFNEKLDDFAEKVVHLGWPIHFVTTGLRVFGLLVYTAMRDEDLFLKREEKPEDDAYYRFETWLSSMYNKVVTAYADTWEKTVSIQKSALQELSAPLLPIFEKISVMPLIGTIDTERAKLIIENLLIGVVKNRSEVVLIDITGVPVVDTMVAHHIIQASEAVRLVGCQAMLVGIRPEIAQTIVNLGIELDQIITTNTMKKGMERALALTNREIVEKEG
modifications: phosphothreonine at 241 (by ESI-MS-MS and cryo-EM density; seen only in RsbR protomers interacting with RsbS); Thr175 and Thr209 not phosphorylated
notes: RsbR of Listeria innocua, gene CAC96120.1; N-terminal sensory domain, linker helix and C-terminal STAS domain; also called RsbR1; source: E. coli BL21 Star (DE3), co-expressed with LiRsbS from pET11a, co-purified (DEAE, Resource Q, Superose 6 Increase SEC)
B2: Listeria innocua RsbS (LiRsbS) (natural protein)
chain: MGIPILKLGECLLISIQSELDDHTAVEFQEDLLAKIHETSARGVVIDITSIDFIDSFIAKILGDVVSMSKLMGAKVVVTGIQPAVAITLIELGITFSGVLSAMDLESGLEKLKQELGE
notes: RsbS of Listeria innocua, gene CAC96121.1; single STAS domain protein; Ser56 not phosphorylated in the structure; source: E. coli BL21 Star (DE3), co-expressed with LiRsbR from pET11a, co-purified (DEAE, Resource Q, Superose 6 Increase SEC)

What was measured:
[1] = target: B2; test: cryo-EM structure; co-expressed and co-purified LiRsbRS complex (monomeric form after SEC), 0.6 mg/mL; C1 map 4.2 Å, D2 map 3.87 Å, icosahedral map 3.45 Å; model built in the D2 map; conditions: both partners purified
[2] = target: the molecule itself; test: as above

Binder: B1
- stoichiometry N [1]: 2 LiRsbR per LiRsbS
- binding result [2]: binds

Binder: B2
- binding result [2]: binds
